In test [1] the target is Vγ9Vδ2 TCR (soluble, biotinylated; clone not stated for this experiment). Kind of test: SPR. As to conditions: parent: est. 1.0; read off a plot.
In test [2] the target is MOP Vγ9Vδ2 TCR (soluble, biotinylated) (human). Kind of test: SPR; BIAcore3000; biotinylated TCRs (2000-3000 RU) captured on streptavidin-coated CM5 chips; BTN IgV domain injected as analyte, 1-200 μM; HBS-EP buffer; equilibrium affinity measurements.
The target in test [3] is Vγ9Vδ1 TCR (soluble, biotinylated) (human). Described as above.
The target of test [4] is MOP Vγ9Vδ2 TCR (soluble, biotinylated) (human). The description is as above. The source holds these as a separate data set.
In test [5] the target is Vγ9Vδ1 TCR (soluble, biotinylated) (human). Described as above. This is another data set of the same source.
Test [6] concerns the target Vγ9Vδ2 TCR (soluble, biotinylated; clone not stated for this experiment) (human). Described as above.
For test [7] the target is unchanged. The description is as above. The source holds these as a separate data set.
In test [8] the target is BTN2A1 peptide on (human). The test can be described thus: SPR, equilibrium affinity and Scatchard analysis; representative experiment of Figure 3B; soluble, other.
For test [9], the target named is BTN2A1 peptide on (human). Kind of test: SPR, equilibrium affinity; biotinylated TCR captured on a streptavidin chip, BTN2A1 IgV as analyte; soluble, other.

Where two headings read alike, the source gives them in different places.

As to BTN2A1 IgV (from UniProt Q7KYR7) Y133A, the ratio to parent in test [1] amounted to 0.8.

As to “BTN2A1 IgV (from UniProt Q7KYR7 27-142) (domain or fragment)”, the Kd was 48.4 µM in [2], 47.9 µM in [3], 49.9 µM in [4] and 46.6 µM in [5].

The substance “BTN2A1 IgV K79A (from UniProt Q7KYR7 27-142) (domain or fragment)” showed a Kd in test [6] of 100 µM.

In the case of “BTN2A1 IgV S72A (from UniProt Q7KYR7 27-142) (domain or fragment)”, the Kd in test [7] lay in the range of 10 to 15 µM; in test [6], 11 to 15 µM.

As to Vγ9Vδ2 MOP TCR, the values for the equilibrium dissociation constant (Kd) in [8] and in test [9] were 48.4 µM and 49.9 µM, respectively.

These data come from article PMC7083227.
